Laboratory results published in patent US20160009817A1 (Bayer, published 2016).

T1: human tissue factor pathway inhibitor (TFPI) (human, UniProt P10646 29-282, limits assumed)
T1 construct: also called Human TFPI
T1 sequence (looked up): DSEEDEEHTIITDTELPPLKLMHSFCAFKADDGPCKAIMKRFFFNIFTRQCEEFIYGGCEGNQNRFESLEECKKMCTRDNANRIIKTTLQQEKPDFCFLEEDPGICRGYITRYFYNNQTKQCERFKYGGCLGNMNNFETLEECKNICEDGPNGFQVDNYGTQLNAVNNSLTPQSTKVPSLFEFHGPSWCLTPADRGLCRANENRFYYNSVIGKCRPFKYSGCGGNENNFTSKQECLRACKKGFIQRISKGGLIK


Columns and labels:
[1] = target: T1, human tissue factor pathway inhibitor …; experiment: SPR (Biacore) kinetics, human TFPI immobilised; antibody with HSA
Protocol: (§1) Human TFPI was immobilized on CM4 or CM5 chip using amine coupling kit based on manufacturer's instruction. Anti-TFPI pro-drug antibodies or parental anti-TFPI antibody were flowed through the system with 10 μg/mL antibody with or without 15 μg/mL human serum albumin (HSA). The binding level was measure at 2 seconds after completion of each injection. In kinetics assay, antibodies with a series of concentrations were injected, followed by 30-minute dissociation time. The dissociation and association rate of the antibodies were modeled using BiaEvaluation software.

[2] = target: T1, human tissue factor pathway inhibitor …; experiment: SPR (Biacore) kinetics, human TFPI immobilised
Protocol: as §1

[3] = target: T1, human tissue factor pathway inhibitor …; experiment: SPR (Biacore), TFPI; with HSA against antibody alone
[4] = target: T1, human tissue factor pathway inhibitor …; experiment: SPR (Biacore), TFPI; antibody alone (reference)
[5] = target: T1, human tissue factor pathway inhibitor …; experiment: SPR (Biacore), TFPI; with monkey serum albumin against antibody alone
[6] = target: T1, human tissue factor pathway inhibitor …; experiment: SPR (Biacore) kinetics, human TFPI immobilised; antibody with HSA; reference gA200
Protocol: as §1

[7] = target: T1, human tissue factor pathway inhibitor …; experiment: SPR (Biacore) kinetics, human TFPI immobilised; reference gA200
Protocol: as §1

| Binder | Kd [1] [nM] | Kd [2] [nM] | Affinity decrease (fold) [3] [fold] | Affinity decrease (fold) [4] [fold] | Affinity decrease (fold) [5] [fold] | Affinity decrease (fold) [6] [fold] | Affinity decrease (fold) [7] [fold] |
| --- | --- | --- | --- | --- | --- | --- | --- |
| gA200 (antibody, human IgG2, lambda, V domains shown, Fc N-glycan, Human anti-TFPI IgG from human antibody libraries, optimised; no masking domain; also called parental anti-TFPI antibody gA200; unmodified anti-TFPI antibody) VH: EVQLVESGGGLVQPGGSLRLSCAASGFTFSSYGMDWVRQAPGKGLEWVSSIRGSRGSTYYADSVKGRFTISRDNSKNTLYLQMNSLRAEDTAVYYCARLYRYWFDYWGQGTLVTVSS VL: SYELTQPPSVSVSPGQTARITCSGDNLPKYYAHWYQQKPGQAPVVVIFYDVNRPSGIPERFSGSNSGNTATLTISGTQAMDEADYYCQAWWSSTPVFGGGTKLTVLG | 0.0181 | 0.0175 | 0.7 | 1 | 0.5 | 1.04 | 1 |
| 3E10scFv-gA200 (bispecific antibody, human IgG2, lambda, scFv against TF fused on the N-terminus of the heavy chain of anti-TFPI IgG gA200; made in CHO cells; also called 3E10sc-gA200) heavy: QVQLVESGGTLVQPGGSLRLSCAASGFSFTDAWMSWVRQAPGKELEWVSSISGSGGSTYYAGSVKGRFTISRDNSKNTLYLQMNSLRAEDTAVYYCARVLSLTDYYWYGMDVWGQGTLVTVGGGGSGGGGSGGGGSNFMLTQPHSVSASPGKTVTISCTRSSGSVASYYVQWYQQRPGSSPTTVIYEDNHRPSGVPDRFSGSIDTSSNSASLTISGLKTEDEADYYCQSYDSNNLVVFGGGTKLTVLGEGRTATSGGGLVQPGGSLRLSCAASGFTFSSYGMDWVRQAPGKGLEWVSSIRGSRGSTYYADSVKGRFTISRDNSKNTLYLQMNSLRAEDTAVYYCARLYRYWFDYWGQGTLVTVSSASTKGPSVFPLAPCSRSTSESTAALGCLVKDYFPEPVTVSWNSGALTSGVHTFPAVLQSSGLYSLSSVVTVPSSNFGTQTYTCNVDHKPSNTKVDKTVERKCCVECPPCPAPPVAGPSVFLFPPKPKDTLMISRTPEVTCVVVDVSHEDPEVQFNWYVDGVEVHNAKTKPREEQFNSTFRVVSVLTVVHQDWLNGKEYKCKVSNKGLPAPIEKTISKTKGQPREPQVYTLPPSREEMTKNQVSLTCLVKGFYPSDIAVEWESNGQPENNYKTTPPMLDSDGSFFLYSKLTVDKSRWQQGNVFSCSVMHEALHNHYTQKSLSLSPG light: SYELTQPPSVSVSPGQTARITCSGDNLPKYYAHWYQQKPGQAPVVVIFYDVNRPSGIPERFSGSNSGNTATLTISGTQAMDEADYYCQAWWSSTPVFGGGTKLTVLGQPKAAPSVTLFPPSSEELQANKATLVCLISDFYPGAVTVAWKADSSPVKAGVETTTPSKQSNNKYAASSYLSLTPEQWKSHRSYSCQVTHEGSTVEKTVAPTECS | – | 0.519 | – | – | – | – | 29.7 |
| Ter119scFv-gA200 (bispecific antibody, human IgG2, lambda, scFv against RBC fused on the N-terminus of the heavy chain of anti-TFPI IgG gA200; made in CHO cells; also called Ter119sc-gA200; T119sc-gA200) heavy: QVKLQESGGGLVQPGGSLKLSCVASGFTFRDHWMNWVRQAPGKTMEWIGDIRPDGSDTNYAPSVRNRFTISRDNARSILYLQMSNMRSDYTATYYCVRDSPTRAGLMDAWGQGASVTVLTGGGGSGGGGSGGGGSDIQMIQSPSVLSASVGDRVTLNCKASQNINKYLNWYQQKLGEAPKVLIYNTNNLQTGIPSRFSGSGSGTDFTLTISSLQPEDFATYFCFQHYTWPTFGGGTKLELKEGRTATSGGGLVQPGGSLRLSCAASGFTFSSYGMDWVRQAPGKGLEWVSSIRGSRGSTYYADSVKGRFTISRDNSKNTLYLQMNSLRAEDTAVYYCARLYRYWFDYWGQGTLVTVSSASTKGPSVFPLAPCSRSTSESTAALGCLVKDYFPEPVTVSWNSGALTSGVHTFPAVLQSSGLYSLSSVVTVPSSNFGTQTYTCNVDHKPSNTKVDKTVERKCCVECPPCPAPPVAGPSVFLFPPKPKDTLMISRTPEVTCVVVDVSHEDPEVQFNWYVDGVEVHNAKTKPREEQFNSTFRVVSVLTVVHQDWLNGKEYKCKVSNKGLPAPIEKTISKTKGQPREPQVYTLPPSREEMTKNQVSLTCLVKGFYPSDIAVEWESNGQPENNYKTTPPMLDSDGSFFLYSKLTVDKSRWQQGNVFSCSVMHEALHNHYTQKSLSLSPG light: SYELTQPPSVSVSPGQTARITCSGDNLPKYYAHWYQQKPGQAPVVVIFYDVNRPSGIPERFSGSNSGNTATLTISGTQAMDEADYYCQAWWSSTPVFGGGTKLTVLGQPKAAPSVTLFPPSSEELQANKATLVCLISDFYPGAVTVAWKADSSPVKAGVETTTPSKQSNNKYAASSYLSLTPEQWKSHRSYSCQVTHEGSTVEKTVAPTECS | – | 0.256 | – | – | – | – | 14.7 |
